Data taken from US20160046678A1 (ZYNGENIA, published 2016).
Ends that are not written are not given here.

Target: T1, Angiopoietin-2 (Ang2) (human, UniProt O15123 19-496, biotin label in Examples 22-24)
T1 construct: also called rhAng2; recombinant Ang2
T1 sequence (looked up): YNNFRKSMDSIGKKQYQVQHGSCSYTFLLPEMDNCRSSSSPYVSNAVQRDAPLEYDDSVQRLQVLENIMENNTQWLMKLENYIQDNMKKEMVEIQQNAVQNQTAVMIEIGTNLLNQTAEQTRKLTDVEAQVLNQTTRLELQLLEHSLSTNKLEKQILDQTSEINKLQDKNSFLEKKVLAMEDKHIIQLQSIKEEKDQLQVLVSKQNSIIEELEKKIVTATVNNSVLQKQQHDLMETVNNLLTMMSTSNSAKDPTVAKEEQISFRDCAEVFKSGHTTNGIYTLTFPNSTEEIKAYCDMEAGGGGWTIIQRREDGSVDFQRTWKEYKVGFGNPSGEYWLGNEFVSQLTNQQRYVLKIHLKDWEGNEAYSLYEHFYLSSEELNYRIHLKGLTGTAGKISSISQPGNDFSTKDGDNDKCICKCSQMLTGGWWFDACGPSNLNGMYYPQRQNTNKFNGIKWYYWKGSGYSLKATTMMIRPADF
Experiment: ELISA, MRD-MBP fusions on rhAng2-coated wells; references L17D and Lm32 KtoS MBP fusions

B1: 2xLm32 MRD-MBP fusion (other)
chain: MGAQTNFMPMDNDELLLYEQFILQQGLEGGSGSTASSGSGSSLGAQTNFMPMDNDELLLY
modifications: also: fused to maltose binding protein, MRD downstream of malE, two copies of Lm32
notes: also called Lm32 dimer; LM-2x-32; not shown: MRD inserted downstream of malE
fold higher affinity: > 10 fold
